The term Kd denotes a measure of binding affinity in units of concentration. A low value points to higher affinity.

For one substance, Kd, fold change of kon, dark against light and fold increase of koff, light against dark results are on record in article doi:10.1101/2020.03.08.831909.

Test [1] has as its target OptoMB_(C450V), light-insensitive, His-tagged, purified (Avena sativa) (UniProt O49003). Description: BLI.
In test [2] the target is lit-stabilized OptoMB variant (group of the BLI measurements in the light). The test is described as follows: BLI. (In general: Biolayer interferometry detects binding as a change in optical thickness at a sensor tip.)

Where only a bound is given, the exact number is not on record here.

Sequence of YFP-SH2, purified (fusion of yellow fluorescent protein and SH2) (P00519 121-232): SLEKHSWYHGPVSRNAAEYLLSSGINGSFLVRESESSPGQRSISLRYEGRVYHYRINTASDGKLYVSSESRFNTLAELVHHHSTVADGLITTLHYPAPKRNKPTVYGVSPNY

Substance “YFP-SH2, purified (fusion of yellow fluorescent protein and SH2) (from UniProt P00519 121-232) (domain or fragment)” displayed a Kd in test [1] of 0.07 µM. In test [2], the dissociation constant Kd came out at 11.2 µM; the fold change of kon, dark against light is < 46 fold; the fold increase of koff, light against dark was < 10 fold.
